# Data taken from US20210206877A1 (Genentech, published 2021).
# Experiments:
# Assay in all cases: cell-based or functional assay
# [1] = molecular target: BACE1 endogenous to primary cortical neurons from E16.5 CD1 mice (mouse, UniProt P56818 46-501)
# [2] = molecular target: BACE1 ECD (as used in the enzyme activity assay) (UniProt P56817 22-457, limits assumed)
# human BACE1 ECD = human BACE1 ECD (human, UniProt P56817)
# murine BACE1 ECD = molecular target: murine BACE1 ECD
# Throughout, for % inhibition, FRET short substrate assay (negative = activation): test concentration or dose not given here.
# Chain of murine BACE1 ECD (single chain, as listed by the source limits assumed): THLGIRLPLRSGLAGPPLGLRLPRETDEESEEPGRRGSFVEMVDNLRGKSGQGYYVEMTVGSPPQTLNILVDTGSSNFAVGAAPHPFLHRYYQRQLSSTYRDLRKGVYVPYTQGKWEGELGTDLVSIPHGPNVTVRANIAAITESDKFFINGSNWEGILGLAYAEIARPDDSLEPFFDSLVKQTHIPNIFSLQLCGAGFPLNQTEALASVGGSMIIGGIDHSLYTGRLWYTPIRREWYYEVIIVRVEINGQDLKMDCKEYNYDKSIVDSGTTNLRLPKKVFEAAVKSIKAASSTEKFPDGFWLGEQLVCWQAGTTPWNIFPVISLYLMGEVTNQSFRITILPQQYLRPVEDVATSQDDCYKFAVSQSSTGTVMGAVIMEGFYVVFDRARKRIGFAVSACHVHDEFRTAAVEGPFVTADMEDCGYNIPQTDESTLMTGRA
# Chain of BACE1 endogenous to primary cortical neurons from E16.5 CD1 mice (P56818 46-501): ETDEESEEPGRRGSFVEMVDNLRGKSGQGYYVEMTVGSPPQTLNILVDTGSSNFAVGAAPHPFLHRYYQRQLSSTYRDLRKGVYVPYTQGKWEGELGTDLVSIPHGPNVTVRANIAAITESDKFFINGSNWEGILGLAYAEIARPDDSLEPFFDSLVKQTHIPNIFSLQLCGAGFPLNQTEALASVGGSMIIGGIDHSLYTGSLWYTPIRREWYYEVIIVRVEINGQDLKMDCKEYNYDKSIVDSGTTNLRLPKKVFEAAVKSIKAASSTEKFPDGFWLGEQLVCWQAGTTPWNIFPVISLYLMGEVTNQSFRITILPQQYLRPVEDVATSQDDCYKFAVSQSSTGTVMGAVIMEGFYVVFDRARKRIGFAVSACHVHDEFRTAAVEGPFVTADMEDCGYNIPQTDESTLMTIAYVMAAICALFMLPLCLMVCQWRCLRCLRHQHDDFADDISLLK
# Chain of BACE1 ECD (as used in the enzyme activity assay) (P56817 22-457 limits assumed): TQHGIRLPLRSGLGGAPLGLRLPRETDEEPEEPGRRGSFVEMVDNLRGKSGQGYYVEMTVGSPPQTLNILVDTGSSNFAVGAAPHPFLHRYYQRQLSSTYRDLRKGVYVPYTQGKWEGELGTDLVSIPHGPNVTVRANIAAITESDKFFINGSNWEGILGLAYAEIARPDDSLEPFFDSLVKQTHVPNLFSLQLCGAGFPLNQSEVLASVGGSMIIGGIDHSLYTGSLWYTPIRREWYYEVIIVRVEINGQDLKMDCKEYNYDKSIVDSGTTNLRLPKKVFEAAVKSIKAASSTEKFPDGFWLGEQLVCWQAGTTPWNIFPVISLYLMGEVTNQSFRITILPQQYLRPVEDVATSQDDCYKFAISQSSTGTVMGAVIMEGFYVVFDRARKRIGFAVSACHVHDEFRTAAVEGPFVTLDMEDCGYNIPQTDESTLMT
# Chain of human BACE1 ECD (P56817 22-457): as the sequence (P56817 22-457 limits assumed) above
Binder,"max % inhibition, Abeta x-40 in mouse cortical neurons [1] [%]","EC50, FRET short substrate assay [2] [nM]","EC50, HTRF long substrate assay [2] [nM]","% inhibition, FRET short substrate assay (negative = activation) (human BACE1 ECD) [%]","% inhibition, FRET short substrate assay (negative = activation) (murine BACE1 ECD) [%]","IC50, Abeta x-40 in mouse cortical neurons (row 5884*, second run) [1] [nM]","IC50, Abeta x-40 in mouse cortical neurons (row 5887*, second run) [1] [nM]"
"5260 (antibody, V domains shown) VH: QVQLVQSGAEVKKPGSSVKVSCKASGGTFSSYAISWVRQAPGQGLEWMGSIIPIFGTANYAQKFQGRVTITADESTSTAYMELSSLRSEDTAVYYCARSGGTKYGMLDVWGQGTMVTVSS VL: EIVMTQSPATLSVSPGERATLSCRASQSVGSNLAWYQQKPGQAPRLLIYGASTRATGIPARFSGSGSGTEFTLTISSLQSEDFAVYYCQQAVVWPPRTFGGGTKVEIK",74,36.8,720,-54,-35,,
"5536 (antibody, V domains shown) VH: QVQLVQSGAEVKKPGSSVKVSCKASGGTFSSYAISWVRQAPGQGLEWMGSIIPIFGTANYAQKFQGRVTITADESTSTAYMELSSLRSEDTAVYYCARSGGTKYGMLDVWGQGTMVTVSS VL: EIVMTQSPATLSVSPGERATLSCRASQSVGSNLAWYQQKPGQAPRLLIYGASTRATGIPARFSGSGSGTEFTLTISSLQSEDFAVYYCQQSYLWPPRTFGGGTKVEIK",84,,0.578,32,30,,
"5571 (antibody, V domains shown) VH: QVQLVQSGAEVKKPGSSVKVSCKASGGTFSSYAISWVRQAPGQGLEWMGNIIPIFGTANYAQKFQGRVTITADESTSTAYMELSSLRSEDTAVYYCARSGGTKYGMLDVWGQGTVVTVSS VL: EIVMTQSPATLSVSPGERATLSCRASQSVSSNLAWYQQKPGQAPRLLIYGASTRATGIPARFSGSGSGTEFTLTISSLQSEDFAVYYCQQLILWPPRTFGGGTKVEIK",84,0.417,5.06,-89,-175,,
"5572 (antibody, V domains shown) VH: QVQLVQSGAEVKKPGSSVKVSCKASGGTFSSYAISWVRQAPGQGLEWMGSIIPIFGTANYAQKFQGRVTITADESTSTAYMELSSLRSEDTAVYYCARSGGTKYGMLDVWGQGTMVTVSS VL: EIVMTQSPATLSVSPGERATLSCRASQSVGSNLAWYQQKPGQAPRLLIYGASTRATGIPARFSGSGSGTEFTLTISSLQSEDFAVYYCQQLYTWPPRTFGGGTKVEIK",73,15.9,1.28,75,77,,
"5883 (antibody, V domains shown) VH: QVQLVQSGAEVKKPGSSVKVSCKASGGTFSSYAISWVRQAPGQGLEWMGGIIPIGGGANYAQKFQGRVTITADESTSTAYMELSSLRSEDTAVYYCARSGGTKYGMLDVWGQGTMVTVSS VL: EIVMTQSPATLSVSPGERATLSCRASQSVSSNLAWYQQKPGQAPRLLIYGASTRATGIPARFSGSGSGTEFTLTISSLQSEDFAVYYCQQLILWPPRTFGGGTKVEIK",82,0.607,5.93,-129,-275,,
"5884 (antibody, V domains shown) VH: QVQLVQSGAEVKKPGSSVKVSCKASGGTFSGYGISWVRQAPGQGLEWMGNIIPGFGTANYAQKFQGRVTITADESTSTAYMELSSLRSEDTAVYYCARSGGTKYGMLDVWGQGTMVTVSS VL: EIVMTQSPATLSVSPGERATLSCRASQSVSSNLAWYQQKPGQAPRLLIYGASTRATGIPARFSGSGSGTEFTLTISSLQSEDFAVYYCQQLILWPPRTFGGGTKVEIK",83,0.478,7.76,-102,-243,3.51,
"5887 (antibody, V domains shown) VH: QVQLVQSGAEVKKPGSSVKVSCKASGGTFRGYAISWVRQAPGQGLEWMGNIIPGFGTANYAQKFQGRVTITADESTSTAYMELSSLRSEDTAVYYCARSGGTKYGMLDVWGQGTMVTVSS VL: EIVMTQSPATLSVSPGERATLSCRASQSVSSNLAWYQQKPGQAPRLLIYGASTRATGIPARFSGSGSGTEFTLTISSLQSEDFAVYYCQQLILWPPRTFGGGTKVEIK",75,0.482,5.5,-102,-230,,2.53
"5539 (antibody, V domains shown) VH: not shown VL: DIQMTQSPSSLSASVGDRVTITCRASQSISSYLNWYQQKPGKAPKLLIYAASSLQSGVPSRFSGSGSGTDFTLTISSLQPEDFATYYCQQPLSHPRTFGGGTKVEIK",45,,0.694,42,23,,
"5644 (antibody, V domains shown) VH: QLQLQESGPGLVKPSETLSLTCTVSGGSISSSSYYWGWIRQPPGKGLEWIGSIYYSGSTYYNPSLKSRVTISVDTSKNQFSLKLSSVTAADTAVYYCARVGHGISYFDLWGRGTLVTVSS VL: EIVLTQSPATLSLSPGERATLSCRASQSVSSYLAWYQQKPGQAPRLLIYDASKRATGIPARFSGSGSGTDFTLTISSLEPEDFAVYYCQQVYTWPPRTFGGGTKVEIK",72,8.47,8.75,65,63,,
"5543 (antibody, V domains shown) VH: QLQLQESGPGLVKPSETLSLTCTVSGGSISSSSYYWGWIRQPPGKGLEWIGSIYYSGSTYYNPSLKSRVTISVDTSKNQFSLKLSSVTAADTAVYYCARVGHGISYFDLWGRGTLVTVSS VL: EIVLTQSPATLSLSPGERATLSCRASQSVSSYLAWYQQKPGQAPRLLIYDASNRATGIPARFSGSGSGTDFTLTISSLEPEDFAVYYCQQAYVWPPRTFGGGTKVEIK",65,9.11,30,,,,
"5643 (antibody, V domains shown) VH: QLQLQESGPGLVKPSETLSLTCTVSGGSISSSSYYWGWIRQPPGKGLEWIGSIYYSGSTYYNPSLKSRVTISVDTSKNQFSLKLSSVTAADTAVYYCARVGHGISYFDLWGRGTLVTVSS VL: EIVLTQSPATLSLSPGERATLSCRASQSVSSYLAWYQQKPGQAPRLLIYDASNRATGIPARFSGSGSGTDFTLTISSLEPEDFAVYYCQQSLTWPPRTFGGGTKVEIK",60,1.41,17.7,,,,
"5902 (antibody, V domains shown) VH: QLQLQESGPGLVKPSETLSLTCTVSGGSISSSSYYWGWIRQPPGKGLEWIGSIYRSGSTWYNPSLKSRVTISVDTSKNQFSLKLSSVTAADTAVYYCARVGHGISYFDLWGRGTLVTVSS VL: EIVLTQSPATLSLSPGERATLSCRASQSVSSYLAWYQQKPGQAPRLLIYDASKRATGIPARFSGSGSGTDFTLTISSLEPEDFAVYYCQQVYTWPPRTFGGGTKVEIK",67,,,,,,
